Measurements reported in the supplement of paper PMC11246515.
± gives the standard deviation of the averaged measurements.

Assay: total protein half-life in vivo (active degradation + dilution); higher = more stable protein
[1] = E. coli NCM3722 delta-clpP delta-lon delta-hslV, growth: N-lim chemostat, doubling time 6 h
[2] = E. coli NCM3722 delta-clpP, growth: N-lim chemostat, doubling time 6 h
[3] = E. coli NCM3722 delta-hslV, growth: N-lim chemostat, doubling time 6 h
[4] = E. coli NCM3722 delta-lon, growth: N-lim chemostat, doubling time 6 h
[5] = E. coli NCM3722 delta-smpB, growth: N-lim chemostat, doubling time 6 h
[6] = wild type E. coli NCM3722, growth: C-lim chemostat, doubling time 3 h
[7] = wild type E. coli NCM3722, growth: C-lim chemostat, doubling time 6 h
[8] = wild type E. coli NCM3722, growth: C-lim chemostat, doubling time 12 h
[9] = wild type E. coli NCM3722, growth: N-lim chemostat, doubling time 6 h
[10] = wild type E. coli NCM3722, growth: N-lim chemostat, doubling time 12 h
[11] = wild type E. coli NCM3722, growth: P-lim chemostat, doubling time 6 h
[12] = wild type E. coli NCM3722, growth: P-lim chemostat, doubling time 12 h

Row | Sequence | total protein half-life in vivo [1] [h] | total protein half-life in vivo [2] [h] | total protein half-life in vivo [3] [h] | total protein half-life in vivo [4] [h] | total protein half-life in vivo [5] [h] | total protein half-life in vivo [6] [h] | total protein half-life in vivo [7] [h] | total protein half-life in vivo [8] [h] | total protein half-life in vivo [9] [h] | total protein half-life in vivo [10] [h] | total protein half-life in vivo [11] [h] | total protein half-life in vivo [12] [h]
1 | MKRIAFVFSTAPHGTAAGREGLDALLATSALTDDLAVFFIADGVFQLLPGQKPDAVLARDYIATFKLLGLYDIEQCWVCAASLRERGLDPQTPFVVEATPLEADALRRELANYDVILRF | 5 ± 0.57 | 4.73 | 4.7 ± 0.82 | 5.18 ± 0.19 | 4.61 ± 0.23 | > 4 | 6 ± 0.18 | 11.2 ± 0.57 | 4.83 ± 0.091 | 7.67 ± 0.38 | 5.89 ± 1.2 | 13.9 ± 2.3
2 | MKTFPLQSLTIIEAQQKQFALVDSICRHFPGSEFLTGGDLGLTPGLNQPRVTQRVEQVLADAFHAQAAALVQGAGTGAIRAGLAALLKPGQRLLVHDAPVYPTTRVIIEQMGLTLITVDFNDLSALKQVVDEQQPDAALVQHTRQQPQDSYVLADVLATLRAAGVPALTDDNYAVMKVARIGCECGANVSTFSCFKLFGPEGVGAVVGDADVINRIRATLYSGGSQIQGAQALEVLRGLVFAPVMHAVQAGVSERLLALLNGGAVPEVKSAVIANAQSKVLIVEFHQPIAARVLEEAQKRGALPYPVGAESKYEIPPLFYRLSGTFRQANPQSEHCAIRINPNRSGEETVLRILRESIASI | 5.7 ± 0.96 | 5.48 | 4.47 | 4.71 | – | – | – | – | 4.59 | 8.25 | 5.35 | 12.4
3 | MAQPAAIIRIKNLRLRTFIGIKEEEINNRQDIVINVTIHYPADKARTSEDINDALNYRTVTKNIIQHVENNRFSLLEKLTQDVLDIAREHHWVTYAEVEIDKLHALRYADSVSMTLSWQR [P0AC19] | 4.1 ± 0.57 | 2.73 ± 0.7 | 2.79 ± 0.23 | 3.5 ± 0.081 | 2.93 ± 0.14 | – | 4.77 ± 0.2 | 10 ± 4 | 2.58 ± 0.23 | 3.989 ± 0.015 | 5.16 ± 0.45 | 11.5 ± 0.42
4 | MGYLNNVTGYREDLLANRAIVKHGNFALLTPDGLVKNIIPGFENCDATILSTPKLGASFVDYLVTLHQNGGNQQGFGGEGIETFLYVISGNITAKAEGKTFALSEGGYLYCPPGSLMTFVNAQAEDSQIFLYKRRYVPVEGYAPWLVSGNASELERIHYEGMDDVILLDFLPKELGFDMNMHILSFAPGASHGYIETHVQEHGAYILSGQGVYNLDNNWIPVKKGDYIFMGAYSLQAGYGVGRGEAFSYIYSKDCNRDVEI | 4.66 ± 0.65 | 4.57 ± 0.21 | 4.56 ± 0.21 | 4.35 ± 0.076 | 4.52 ± 0.48 | – | 6.13 ± 0.5 | 10.8 ± 1.2 | 4.4 ± 0.1 | 7 ± 0.45 | 5.21 ± 0.26 | 11.1 ± 0.86
5 | MVDTTQTTTEKKLTQSDIRGVFLRSNLFQGSWNFERMQALGFCFSMVPAIRRLYPENNEARKQAIRRHLEFFNTQPFVAAPILGVTLALEEQRANGAEIDDGAINGIKVGLMGPLAGVGDPIFWGTVRPVFAALGAGIAMSGSLLGPLLFFILFNLVRLATRYYGVAYGYSKGIDIVKDMGGGFLQKLTEGASILGLFVMGALVNKWTHVNIPLVVSRITDQTGKEHVTTVQTILDQLMPGLVPLLLTFACMWLLRKKVNPLWIIVGFFVIGIAGYACGLLGL | 6.27 ± 0.37 | 6.2 ± 0.14 | 5.93 ± 0.077 | 6.13 ± 0.11 | 6.28 ± 0.28 | 3.168 ± 0.014 | 6.21 ± 0.26 | 13.8 ± 2.9 | 6.51 ± 0.75 | 12.8 ± 1.1 | 6.24 ± 0.064 | 13.56 ± 0.072
6 | MSWIERIKSNITPTRKASIPEGVWTKCDSCGQVLYRAELERNLEVCPKCDHHMRMTARNRLHSLLDEGSLVELGSELEPKDVLKFRDSKKYKDRLASAQKETGEKDALVVMKGTLYGMPVVAAAFEFAFMGGSMGSVVGARFVRAVEQALEDNCPLICFSASGGARMQEALMSLMQMAKTSAALAKMQERGLPYISVLTDPTMGGVSASFAMLGDLNIAEPKALIGFAGPRVIEQTVREKLPPGFQRSEFLIEKGAIDMIVRRPEMRLKLASILAKLMNLPAPNPEAPREGVVVPPVPDQEPEA [P0A9Q5] | 5.95 ± 0.21 | 6.46 ± 0.77 | 6.167 ± 0.012 | 5.92 ± 0.97 | 5.66 ± 0.42 | 3.03 ± 0.31 | 6.15 ± 0.42 | 11.2 ± 0.44 | 6.06 ± 0.44 | 12.1 ± 0.061 | 5.81 ± 0.093 | 12.3 ± 0.26
7 | MSRVTAIISALIICIIVSLSWAVNHYRDNAIAYKVQRDKNARELKLANAAITDMQMRQRDVAALDAKYTKELADAKAENDALRDDVAAGRRRLHIKAVCQSVREATTASGVDNAASPRLADTAERDYFTLRERLITMQKQLEGTQKYINEQCR | – | – | – | – | – | – | – | 3.49 | – | – | – | 6.44
8 | MGKLGENVPLLIDKAVDFMASSQAFREYLKKLPPRNAIPSGIPDESVPLYLQRLEYYRRLYRPKQVEGQ [Q2M7R5] | – | 4.46 ± 1.4 | 3.56 | 3.4 | 3.22 ± 0.16 | 1.99 ± 0.42 | 4.09 ± 0.43 | 4.69 | 2.94 ± 0.43 | 4.57 ± 1.1 | 3.73 ± 0.57 | 8.27 ± 0.33
9 | MRHSLPYRMLRKRPMKLSTTVILMVSAVLFSVLLVVHLIYFSQISDMTRDGLANKALAVARTLADSPEIRQGLQKKPQESGIQAIAEAVRKRNDLLFIVVTDMQSLRYSHPEAQRIGQPFKGDDILKALNGEENVAINRGFLAQALRVFTPIYDENHKQIGVVAIGLELSRVTQQINDSRWSIIWSVLFGMLVGLIGTCILVKVLKKILFGLEPYEISTLFEQRQAMLQSIKEGVVAVDDRGEVTLINDAAQELLNYRKSQDDEKLSTLSHSWSQVVDVSEVLRDGTPRRDEEITIKDRLLLINTVPVRSNGVIIGAISTFRDKTEVRKLMQRLDGLVNYADALRERSHEFMNKLHVILGLLHLKSYKQLEDYILKTANNYQEEIGSLLGKIKSPVIAGFLISKINRATDLGHTLILNSESQLPDSGSEDQVATLITTLGNLIENALEALGPEPGGEISVTLHYRHGWLHCEVNDDGPGIAPDKIDHIFDKGVSTKGSERGVGLALVKQQVENLGGSIAVESEPGIFTQFFVQIPWDGERSNR [P0AEC8] | 6.93 ± 0.11 | 6.33 | 5.74 ± 0.12 | 5.85 ± 0.23 | 5.57 ± 0.62 | 2.98 ± 0.12 | 5.883 ± 0.049 | 11.9 ± 0.56 | 6.25 ± 0.84 | 9.85 ± 3 | 6.32 | 11.6 ± 0.52
